Experimental data taken from patent US20150299307A1 (AbbVie / Abbott, published 2015).

Biological target: T1, human VEGF-A residues 27-191 of Accession # AAV38412 (human, UniProt P15692 27-191)
T1 construct: range 27-191
Assay: SPR (BIAcore T200), cited from Table 21
Protocol: Coupling running buffer was HBS-EP+ running buffer (10 mM HEPES, 150 mM sodium chloride, 3 mM EDTA 0.05% P-20, pH 7.4); assay running buffer was HBS-EP+ with 300 mM sodium chloride and 0.1 mg/mL BSA (Sigma A7906). […] For binding kinetics assay a series of cycles were performed, each cycle consisted of 1) mAb capture, 2) Ag or buffer injection, 3) dissociation phase and 4) regeneration. […] No capture of the antibody was made on the reference surface to serve for primary referencing and as a negative control. […] At the end of each cycle the surface was regenerated with 10 mM glycine, pH 1.5 at a flow rate of 60 μL/min in pulses of 60 and 10 sec. Binding data were fit to the 1:1 Langmuir model with mass transport term included using Biacore T200 Evaluation Software to determine the binding constants.

T1 sequence (P15692 other isoform, or with tags, fused parts or gaps limits assumed): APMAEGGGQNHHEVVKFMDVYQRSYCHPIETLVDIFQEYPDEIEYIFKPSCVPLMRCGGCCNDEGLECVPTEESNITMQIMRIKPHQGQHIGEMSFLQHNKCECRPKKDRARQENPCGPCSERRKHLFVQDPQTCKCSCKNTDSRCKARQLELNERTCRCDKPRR

fold improvement in off-rate over wild type: > 6 fold
B1: bevacizumab variant H97F (taken as IgG format) (antibody, name in Kabat numbering, V domains shown)
VH: EVQLVESGGGLVQPGGSLRLSCAASGYTFTNYGMNWVRQAPGKGLEWVGWINTYTGEPTYAADFKRRFTFSLDTSKSTAYLQMNSLRAEDTAVYYCAKYPFYYGSSHWYFDVWGQGTLVTVSS
VL: DIQMTQSPSSLSASVGDRVTITCSASQDISNYLNWYQQKPGKAPKVLIYFTSSLHSGVPSRFSGSGSGTDFTLTISSLQPEDFATYYCQQYSTVPWTFGQGTKVEIKR
notes: also called H97F mutation alone
